From US20250115664A1

Columns and labels:
[1] = biological target: mouse TIM3 on cells (transfected cells, activated mouse T cells) (mouse) (UniProt Q8VIM0); assay: binding to activated mouse T cells, against TIM3.18 on human TIM3
[2] = biological target: mouse TIM3 on cells (transfected cells, activated mouse T cells) (mouse) (UniProt Q8VIM0); assay: binding to activated mouse T cells
[3] = biological target: cynomolgus TIM3 on cells (transfected CHO cells, activated cyno T cells, cyno spleen) (cynomolgus); assay: flow cytometry, cyno TIM3-transfected CHO cells (Geo-MFI); fit value of a flat negative-control curve, far beyond the tested range; unit from the axis label
Chain of cynomolgus TIM3 on cells (transfected CHO cells, activated cyno T cells, cyno spleen) (cynomolgus) (chain, as listed by the source limits assumed): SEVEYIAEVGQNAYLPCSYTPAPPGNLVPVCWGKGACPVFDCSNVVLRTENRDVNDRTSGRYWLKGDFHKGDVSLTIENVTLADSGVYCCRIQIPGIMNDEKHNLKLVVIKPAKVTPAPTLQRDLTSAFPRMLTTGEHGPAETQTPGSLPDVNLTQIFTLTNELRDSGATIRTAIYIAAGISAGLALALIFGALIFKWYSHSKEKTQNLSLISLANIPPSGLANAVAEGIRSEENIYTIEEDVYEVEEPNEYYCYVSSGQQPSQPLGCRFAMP

[4] = biological target: human TIM3 on cells (transfected CHO cells, activated human T cells, Th1 cells, TILs) (human) (UniProt Q8TDQ0); assay: flow cytometry, human TIM3-transfected CHO cells (Geo-MFI); fit value of a flat negative-control curve, far beyond the tested range; unit from the axis label

Chain of mouse TIM3 on cells (transfected cells, activated mouse T cells) (mouse) (Q8VIM0 20-281): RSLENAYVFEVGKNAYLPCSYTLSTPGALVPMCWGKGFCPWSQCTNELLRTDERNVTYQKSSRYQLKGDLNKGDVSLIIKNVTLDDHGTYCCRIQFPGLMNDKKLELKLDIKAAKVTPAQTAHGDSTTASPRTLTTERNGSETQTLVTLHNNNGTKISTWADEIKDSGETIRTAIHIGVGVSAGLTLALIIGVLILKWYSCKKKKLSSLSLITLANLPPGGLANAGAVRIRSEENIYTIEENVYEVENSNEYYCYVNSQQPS

| fold weaker EC50 than TIM3.18 on human TIM3 [1] [fold] | EC50 [2] [nM] | EC50 [3] [mg/mL] | EC50 [4] [mg/mL] | Substance |
| --- | --- | --- | --- | --- |
| 17 | 1.7 | – | – | RMT3-23 rat anti-mouse TIM3 antibody |
| – | – | 54.1 | 29.3 | hIgG4 (antibody) |
| – | – | 44.5 | 42.3 | hIgG2 (antibody) |
| – | – | 75.7 | 39.7 | hIgG1 (antibody) |
